From patent US20220155309A1 (NATIONAL UNIVERSITY CORPORATION TOKYO MEDICAL AND DENTAL …, published 2022)
Changes are numbered by the printed parent chain.

Tests used:
[1] = biological target: T1, Affimer that binds to actin with ALFA-tag introduced (SEQ ID No: 41); test: fluorescence polarization microscopy of HeLaM cells expressing the ALFA-tagged Affimer, detected with the anti-ALFA-tag Nanobody-cp176-172mVenus fusion
T1 construct: Expressed in HeLaM cells; also called fusion protein of Affimer and an ALFA-tag; Affimer with ALFA-tag introduced
T1 chain: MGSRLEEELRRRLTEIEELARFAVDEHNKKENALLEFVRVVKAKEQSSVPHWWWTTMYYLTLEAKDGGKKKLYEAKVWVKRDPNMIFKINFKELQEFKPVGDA
Description: Specifically, an ALFA-tag (SEQ ID No: 40) was introduced into an Affimer (SEQ ID No: 2) that binds to F-actin as a model system for verifying the above detection system, to obtain a fusion protein having the amino acid sequence set forth in SEQ ID No: 41. This fusion protein was expressed in HeLaM cells. A fusion protein of an anti-ALFA-tag Nanobody (SEQ ID No: 42) and cp176-172mVenus (SEQ ID No: 43) were brought into contact, and fluorescence polarization was observed. The fusion protein of anti-ALFA-tagged Nanobody and cp176-172mVenus was a fusion protein suitable for observation of fluorescence polarization, in which the Nanobody and the cp176-172mVenus were tightly linked (c.f. Example 5).

vimentin [2] = biological target: T2, vimentin (UniProt P08670 2-466, limits assumed); test: fluorescence polarization microscopy of cells expressing the fusion protein
T2 construct: whole, on cells; Endogenous intracellular intermediate filament; also called vimentin fibers; intracellular vimentin
T2 sequence (P08670 2-466 limits assumed): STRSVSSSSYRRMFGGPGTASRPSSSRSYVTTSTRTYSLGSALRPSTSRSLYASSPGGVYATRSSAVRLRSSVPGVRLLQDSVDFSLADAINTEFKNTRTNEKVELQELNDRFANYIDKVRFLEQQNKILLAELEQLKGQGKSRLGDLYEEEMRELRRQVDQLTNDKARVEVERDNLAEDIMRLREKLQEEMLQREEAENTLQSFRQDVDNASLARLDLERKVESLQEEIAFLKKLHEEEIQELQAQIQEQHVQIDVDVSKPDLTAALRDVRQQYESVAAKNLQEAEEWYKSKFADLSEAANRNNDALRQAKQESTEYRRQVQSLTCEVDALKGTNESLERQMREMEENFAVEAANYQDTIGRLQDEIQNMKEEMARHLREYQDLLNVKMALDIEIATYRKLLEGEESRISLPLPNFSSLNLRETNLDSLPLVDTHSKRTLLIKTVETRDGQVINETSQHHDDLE
Description: (§1) An expression vector in which DNA encoding the fusion protein designed was placed under an appropriate promoter was introduced by a lipofection method (Avalanche-Everyday Transfection Reagent), thereby allowing HeLa cells to express the above fusion protein. The cells expressing the fusion protein were observed by fluorescence polarization microscopy.
(§2) The orientation of polarization was different from that in the previous cp-sfGFP. The cp-sfGFP of Example 5 and the cp176-172mVenus used in this example were basically the same type of fluorescent proteins but different in the position of cp.

vimentin [3] = biological target: T2, vimentin; test: fluorescence polarization microscopy of HeLa cells expressing the fusion protein
Description: as §1, §2

B1: fusion protein of anti-ALFA-tag Nanobody and cp176-172mVenus (SEQ ID No: 43) (VHH)
VHH: EVQLQESGGGLVQPGGSLRLSCTASGVTISALNAMAMGWYRQAPGERRVMVAAVSERGNAMYRESVQGRFTVTRDFTNKMVSLQMDNLKPEDTAVYYCHVLEDRVDSFHDYWGQGTQVTVVQ
[1]
  binding result: binds

B2: fusion protein of Nanobody that binds to vimentin and cpmTurquoise2 (SEQ ID No: 25) (VHH)
VHH: QVQLVESGGGLVQSGGSLTLTCAASGFTFSAASMRWVRQVPGKGLEWVATIDGTGANSYYSESAKGRFTISRDNARNTLRLQMNNLKPDDTAVYYCANFGRNYWGKGTQVTVVV
Vimentin [2]
  binding result: binds

B3: fusion protein of Nanobody that binds to vimentin and cpmVenus (SEQ ID No: 26) (VHH)
VHH: B2 VHH
Vimentin [2]
  binding result: binds

B4: fusion protein of vimentin-binding Nanobody and cp-sfGFP (SEQ ID No: 17) (VHH)
VHH: B2 VHH
notes: Expressed inside HeLa cells; beta-sheet to beta-sheet linkage; also called fusion protein of cp-sfGFP and Nanobody
Vimentin [3]
  binding result: binds

B5: fusion protein of Nanobody that binds to vimentin and cp176-172mVenus (SEQ ID No: 31) (VHH)
VHH: B2 VHH
notes: Expressed inside HeLa cells
Vimentin [3]
  binding result: binds

B6: fusion protein of vimentin-binding Nanobody and mApple (SEQ ID No: 19) (VHH)
VHH: B2 VHH with V113M, V114A
notes: Expressed inside HeLa cells; also called fusion protein of mApple and Nanobody
Vimentin [3]
  binding result: binds
